In patent US20260207798A1, “CYCLIC PEPTIDES AS PET IMAGING AGENTS OF GRANZYME B” (priority 2022, published 2026):
Bridge positions count the residues as written; N and C are the ends. Square brackets hold non-standard residues; d marks the D form. NEtAla = CCN[C@@H](C)C(=O)O; NMeA = CN[C@@H](C)C(=O)O

B1: Compound 67a (peptide)
peptide: {CH2CO}-FNFEDQSPDTWQ[NMeA]CG-NH2
modifications: thioether N-14
SMILES: C[C@@H](O)[C@@H]1NC(=O)[C@H](CC(=O)O)NC(=O)[C@@H]2CCCN2C(=O)[C@H](CO)NC(=O)[C@H](CCC(N)=O)NC(=O)[C@H](CC(=O)O)NC(=O)[C@H](CCC(=O)O)NC(=O)[C@H](Cc2ccccc2)NC(=O)[C@H](CC(N)=O)NC(=O)[C@H](Cc2ccccc2)NC(=O)CSC[C@@H](C(=O)NCC(N)=O)NC(=O)[C@H](C)N(C)C(=O)[C@H](CCC(N)=O)NC(=O)[C@H](Cc2c[nH]c3ccccc23)NC1=O
B2: Compound 70a (peptide)
peptide: {CH2CO}-LNFEDQSPDTWQPCG-NH2
modifications: thioether N-14
SMILES: CC(C)C[C@@H]1NC(=O)CSC[C@@H](C(=O)NCC(N)=O)NC(=O)[C@@H]2CCCN2C(=O)[C@H](CCC(N)=O)NC(=O)[C@H](Cc2c[nH]c3ccccc23)NC(=O)[C@H]([C@@H](C)O)NC(=O)[C@H](CC(=O)O)NC(=O)[C@@H]2CCCN2C(=O)[C@H](CO)NC(=O)[C@H](CCC(N)=O)NC(=O)[C@H](CC(=O)O)NC(=O)[C@H](CCC(=O)O)NC(=O)[C@H](Cc2ccccc2)NC(=O)[C@H](CC(N)=O)NC1=O
B3: Compound 79a (peptide)
peptide: {CH2CO}-FNFEDQSASTWQPCG-NH2
modifications: thioether N-14
SMILES: C[C@@H]1NC(=O)[C@H](CO)NC(=O)[C@H](CCC(N)=O)NC(=O)[C@H](CC(=O)O)NC(=O)[C@H](CCC(=O)O)NC(=O)[C@H](Cc2ccccc2)NC(=O)[C@H](CC(N)=O)NC(=O)[C@H](Cc2ccccc2)NC(=O)CSC[C@@H](C(=O)NCC(N)=O)NC(=O)[C@@H]2CCCN2C(=O)[C@H](CCC(N)=O)NC(=O)[C@H](Cc2c[nH]c3ccccc23)NC(=O)[C@H]([C@@H](C)O)NC(=O)[C@H](CO)NC1=O
B4: Compound 78a (peptide)
peptide: {CH2CO}-FNFEDQSAFTWQPCG-NH2
modifications: thioether N-14
SMILES: C[C@@H]1NC(=O)[C@H](CO)NC(=O)[C@H](CCC(N)=O)NC(=O)[C@H](CC(=O)O)NC(=O)[C@H](CCC(=O)O)NC(=O)[C@H](Cc2ccccc2)NC(=O)[C@H](CC(N)=O)NC(=O)[C@H](Cc2ccccc2)NC(=O)CSC[C@@H](C(=O)NCC(N)=O)NC(=O)[C@@H]2CCCN2C(=O)[C@H](CCC(N)=O)NC(=O)[C@H](Cc2c[nH]c3ccccc23)NC(=O)[C@H]([C@@H](C)O)NC(=O)[C@H](Cc2ccccc2)NC1=O
B5: Compound 74a (peptide)
peptide: {CH2CO}-FNFEDQSAQTWQPCG-NH2
modifications: thioether N-14
SMILES: C[C@@H]1NC(=O)[C@H](CO)NC(=O)[C@H](CCC(N)=O)NC(=O)[C@H](CC(=O)O)NC(=O)[C@H](CCC(=O)O)NC(=O)[C@H](Cc2ccccc2)NC(=O)[C@H](CC(N)=O)NC(=O)[C@H](Cc2ccccc2)NC(=O)CSC[C@@H](C(=O)NCC(N)=O)NC(=O)[C@@H]2CCCN2C(=O)[C@H](CCC(N)=O)NC(=O)[C@H](Cc2c[nH]c3ccccc23)NC(=O)[C@H]([C@@H](C)O)NC(=O)[C@H](CCC(N)=O)NC1=O
B6: Compound 81a (peptide)
peptide: {CH2CO}-FNFEDQSANTWQPCG-NH2
modifications: thioether N-14
SMILES: C[C@@H]1NC(=O)[C@H](CO)NC(=O)[C@H](CCC(N)=O)NC(=O)[C@H](CC(=O)O)NC(=O)[C@H](CCC(=O)O)NC(=O)[C@H](Cc2ccccc2)NC(=O)[C@H](CC(N)=O)NC(=O)[C@H](Cc2ccccc2)NC(=O)CSC[C@@H](C(=O)NCC(N)=O)NC(=O)[C@@H]2CCCN2C(=O)[C@H](CCC(N)=O)NC(=O)[C@H](Cc2c[nH]c3ccccc23)NC(=O)[C@H]([C@@H](C)O)NC(=O)[C@H](CC(N)=O)NC1=O
B7: Compound 68a (peptide)
peptide: {CH2CO}-FNFEDQSPDTWQ[NEtAla]CG-NH2
modifications: thioether N-14
SMILES: CCN1C(=O)[C@H](CCC(N)=O)NC(=O)[C@H](Cc2c[nH]c3ccccc23)NC(=O)[C@H]([C@@H](C)O)NC(=O)[C@H](CC(=O)O)NC(=O)[C@@H]2CCCN2C(=O)[C@H](CO)NC(=O)[C@H](CCC(N)=O)NC(=O)[C@H](CC(=O)O)NC(=O)[C@H](CCC(=O)O)NC(=O)[C@H](Cc2ccccc2)NC(=O)[C@H](CC(N)=O)NC(=O)[C@H](Cc2ccccc2)NC(=O)CSC[C@@H](C(=O)NCC(N)=O)NC(=O)[C@@H]1C
B8: Compound 80a (peptide)
peptide: {CH2CO}-FNFEDQSALTWQPCG-NH2
modifications: thioether N-14
SMILES: CC(C)C[C@@H]1NC(=O)[C@H](C)NC(=O)[C@H](CO)NC(=O)[C@H](CCC(N)=O)NC(=O)[C@H](CC(=O)O)NC(=O)[C@H](CCC(=O)O)NC(=O)[C@H](Cc2ccccc2)NC(=O)[C@H](CC(N)=O)NC(=O)[C@H](Cc2ccccc2)NC(=O)CSC[C@@H](C(=O)NCC(N)=O)NC(=O)[C@@H]2CCCN2C(=O)[C@H](CCC(N)=O)NC(=O)[C@H](Cc2c[nH]c3ccccc23)NC(=O)[C@H]([C@@H](C)O)NC1=O
B9: Compound 77a (peptide)
peptide: {CH2CO}-FNFEDQSAATWQPCG-NH2
modifications: thioether N-14
SMILES: C[C@@H]1NC(=O)[C@H](C)NC(=O)[C@H](CO)NC(=O)[C@H](CCC(N)=O)NC(=O)[C@H](CC(=O)O)NC(=O)[C@H](CCC(=O)O)NC(=O)[C@H](Cc2ccccc2)NC(=O)[C@H](CC(N)=O)NC(=O)[C@H](Cc2ccccc2)NC(=O)CSC[C@@H](C(=O)NCC(N)=O)NC(=O)[C@@H]2CCCN2C(=O)[C@H](CCC(N)=O)NC(=O)[C@H](Cc2c[nH]c3ccccc23)NC(=O)[C@H]([C@@H](C)O)NC1=O
B10: Compound 72a (peptide)
peptide: {CH2CO}-FNFEDQS[NEtAla]DTWQPCG-NH2
modifications: thioether N-14
SMILES: CCN1C(=O)[C@H](CO)NC(=O)[C@H](CCC(N)=O)NC(=O)[C@H](CC(=O)O)NC(=O)[C@H](CCC(=O)O)NC(=O)[C@H](Cc2ccccc2)NC(=O)[C@H](CC(N)=O)NC(=O)[C@H](Cc2ccccc2)NC(=O)CSC[C@@H](C(=O)NCC(N)=O)NC(=O)[C@@H]2CCCN2C(=O)[C@H](CCC(N)=O)NC(=O)[C@H](Cc2c[nH]c3ccccc23)NC(=O)[C@H]([C@@H](C)O)NC(=O)[C@H](CC(=O)O)NC(=O)[C@@H]1C
B11: Compound 73a (peptide)
peptide: {CH2CO}-FNFEDQSAETWQPCG-NH2
modifications: thioether N-14
SMILES: C[C@@H]1NC(=O)[C@H](CO)NC(=O)[C@H](CCC(N)=O)NC(=O)[C@H](CC(=O)O)NC(=O)[C@H](CCC(=O)O)NC(=O)[C@H](Cc2ccccc2)NC(=O)[C@H](CC(N)=O)NC(=O)[C@H](Cc2ccccc2)NC(=O)CSC[C@@H](C(=O)NCC(N)=O)NC(=O)[C@@H]2CCCN2C(=O)[C@H](CCC(N)=O)NC(=O)[C@H](Cc2c[nH]c3ccccc23)NC(=O)[C@H]([C@@H](C)O)NC(=O)[C@H](CCC(=O)O)NC1=O
B12: Compound 82a (peptide)
peptide: {CH2CO}-FNFEDQSATTWQPCG-NH2
modifications: thioether N-14
SMILES: C[C@@H]1NC(=O)[C@H](CO)NC(=O)[C@H](CCC(N)=O)NC(=O)[C@H](CC(=O)O)NC(=O)[C@H](CCC(=O)O)NC(=O)[C@H](Cc2ccccc2)NC(=O)[C@H](CC(N)=O)NC(=O)[C@H](Cc2ccccc2)NC(=O)CSC[C@@H](C(=O)NCC(N)=O)NC(=O)[C@@H]2CCCN2C(=O)[C@H](CCC(N)=O)NC(=O)[C@H](Cc2c[nH]c3ccccc23)NC(=O)[C@H]([C@@H](C)O)NC(=O)[C@H]([C@@H](C)O)NC1=O
B13: Compound 84a (peptide)
peptide: {CH2CO}-FNFEDQSAVTWQPCG-NH2
modifications: thioether N-14
SMILES: CC(C)[C@@H]1NC(=O)[C@H](C)NC(=O)[C@H](CO)NC(=O)[C@H](CCC(N)=O)NC(=O)[C@H](CC(=O)O)NC(=O)[C@H](CCC(=O)O)NC(=O)[C@H](Cc2ccccc2)NC(=O)[C@H](CC(N)=O)NC(=O)[C@H](Cc2ccccc2)NC(=O)CSC[C@@H](C(=O)NCC(N)=O)NC(=O)[C@@H]2CCCN2C(=O)[C@H](CCC(N)=O)NC(=O)[C@H](Cc2c[nH]c3ccccc23)NC(=O)[C@H]([C@@H](C)O)NC1=O

The binders below were run against T1, human Granzyme B (human, UniProt P10144 21-247) (assay: SPR, Biacore 8k+, hGranzyme B captured on SA chip, single cycle kinetics, 1:1 model).
T1 construct: Captured on a Series S Streptavidin chip for SPR; also called hGranzyme B; GzmB
Experimental: The kinetics of test peptide binding to human Granzyme B (hGranzyme B) was determined by SPR. All experiments were performed at 25° C. using the Biacore 8k+ instrument (Cytiva, Marlborough, MA). The Biacore 8k+ Insight Evaluation Software Version 3.0 was used to fit the data with a 1:1 binding model to determine the association rate constant kₐ (M⁻¹s⁻¹, where “M” ~equals molar and “s” ~equals seconds) and the dissociation rate constant kd (s⁻¹). These rate constants were used to calculate the equilibrium dissociation constant. KD (M)=kd/kₐ.
To measure the binding kinetics of peptides of interest, surfaces were prepared by a capture method to a Series S Streptavidin (SA) chip using a 1×HBS-EP+ running buffer (Cytiva). hGranzyme B was diluted to 10 μg/mL in IX HBS-EP+ and flowed over spot 2 of each flow cell on the chip at a flow rate of 10 ul/min for 20 s to achieve a level of capture of ~1100 RU. An unmodified spot 1 of each flow cell was used as a matrix binding control or reference surface. Binding kinetics were measured using single cycle kinetics at 25° C. by injecting 5 concentrations with 3-fold serial dilutions of test peptides from 0.01 μM to 1 μM. Compound dilutions were performed manually in a running buffer containing 1×HBS-EP+(Cytiva), and a final concentration of 2% DMSO. The interaction analyses over hGranzyme B, were performed using a 120 s association time and a 900 s dissociation time. All experiments were conducted at a flow rate of 50 μL/min with a data collection rate of 10 Hz.
Peptide dilution series included 2 zero concentration points (no compound) which were averaged and subtracted from the peptide concentration injection as DMSO control responses. Binding data acquired from the reference surface (matrix binding control) were subtracted from the binding data for hGranzyme B surface on the chip to determine specific binding. Next, the association phase data were solvent corrected to account for any signal fluctuation throughout the experiment due to subtle DMSO concentration differences. Corrected response data were analyzed using the Biacore 8k+ Evaluation Software Version 3.0 according to the manufacturer. SPR data for representative compounds of the disclosure are found in Table 8.

T1 sequence (P10144 21-247 limits assumed): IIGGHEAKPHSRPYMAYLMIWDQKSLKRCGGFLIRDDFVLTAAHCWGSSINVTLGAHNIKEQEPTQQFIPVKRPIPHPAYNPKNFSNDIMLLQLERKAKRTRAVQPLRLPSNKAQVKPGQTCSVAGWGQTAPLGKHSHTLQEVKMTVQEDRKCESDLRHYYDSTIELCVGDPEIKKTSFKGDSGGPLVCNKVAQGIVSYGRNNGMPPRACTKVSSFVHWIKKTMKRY

Row | Binder | Kd [nM]
1 | B1 | 12.4
2 | B2 | 18.5
3 | B3 | 34.8
4 | B4 | 34.4
5 | B5 | 23.9
6 | B6 | 43.4
7 | B7 | 15.6
8 | B8 | 38.8
9 | B9 | 29.2
10 | B10 | 20.2
11 | B11 | 21.3
12 | B12 | 45.8
13 | B13 | 52.2
